Assays:
5HT3a = biological target: T1, 5HT3a (Homo sapiens, UniProt P46098); test: Ion channel panel (IonWorks Barracuda): 5HT3a; type: cell-based
T1 construct: host or cells: HEK293 or CHO
T1 sequence (P46098 whole entry, looked up): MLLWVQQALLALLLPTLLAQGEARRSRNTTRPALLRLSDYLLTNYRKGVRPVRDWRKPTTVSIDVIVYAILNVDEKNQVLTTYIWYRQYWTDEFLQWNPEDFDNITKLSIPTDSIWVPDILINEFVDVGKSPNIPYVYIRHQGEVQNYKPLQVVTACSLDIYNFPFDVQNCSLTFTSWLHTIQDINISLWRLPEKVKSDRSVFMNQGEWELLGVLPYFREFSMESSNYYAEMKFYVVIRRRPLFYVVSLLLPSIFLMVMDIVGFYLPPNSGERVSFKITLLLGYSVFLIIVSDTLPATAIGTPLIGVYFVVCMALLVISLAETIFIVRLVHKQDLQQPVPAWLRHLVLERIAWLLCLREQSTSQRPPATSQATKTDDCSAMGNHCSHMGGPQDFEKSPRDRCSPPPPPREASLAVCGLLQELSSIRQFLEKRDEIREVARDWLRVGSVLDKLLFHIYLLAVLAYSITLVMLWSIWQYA
Outline: (§1)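 Peptides were tested in duplicate at final 20 μM and 200 nM, with concentration set by amino acid analysis, in HEPES-buffered saline. They were applied for at least 5 min to HEK293 or CHO cells transfected with each channel. Currents were expressed as % inhibition, 1-(Ipeptide/Icontrol)×100, or % activation, Ipeptide/Icontrol×100, against a channel-matched reference compound.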

Kv1.3 = biological target: T2, Kv1.3 (Homo sapiens, UniProt P22001); test: cell-based; type: cell-based; conditions: 100% = no change, <100% = inhibition
T2 construct: host or cells: HEK293 or CHO
Outline: as §1

Kv1.1 = biological target: T3, Kv1.1 (Homo sapiens, UniProt Q09470); test: cell-based; type: cell-based; conditions: 100% = no change, <100% = inhibition
T3 construct: host or cells: HEK293 or CHO
Outline: as §1

Kv1.2 = biological target: T4, Kv1.2 (Homo sapiens, UniProt P16389); test: cell-based; type: cell-based; conditions: 100% = no change, <100% = inhibition
T4 construct: host or cells: HEK293 or CHO
Outline: as §1

α4β2 = biological target: T5, α4β2 (Homo sapiens, UniProt P17787+P43681); test: Ion channel panel (IonWorks Barracuda): α4β2; type: cell-based; conditions: 100% = no change, <100% = inhibition
T5 construct: host or cells: HEK293 or CHO
Outline: as §1

α3β4 = biological target: T6, α3β4 (Homo sapiens, UniProt P30926+P32297); test: Ion channel panel (IonWorks Barracuda): α3β4; type: cell-based; conditions: 100% = no change, <100% = inhibition
T6 construct: host or cells: HEK293 or CHO
Outline: as §1

GABA = test: Ion channel panel (IonWorks Barracuda): GABA; type: cell-based; conditions: 100% = no change, <100% = inhibition
Outline: as §1

TRPV1 = biological target: T7, TRPV1 (Homo sapiens, UniProt Q8NER1); test: Ion channel panel (IonWorks Barracuda): TRPV1; type: cell-based; conditions: 100% = no change, <100% = inhibition
T7 construct: host or cells: HEK293 or CHO
Outline: as §1

hERG = hERG (Homo sapiens, UniProt Q12809); test: in vitro; conditions: 100% = no change, <100% = inhibition
Outline: as §1

Nav1.5 = Nav1.5 (Homo sapiens, UniProt Q14524); test: in vitro; conditions: 100% = no change; for Activity of Nav1.5 with peptide, expressed as a percentage of the reference compound: peptide at 0.2 μM; for Activity of Nav1.5 with peptide (percentage of the reference compound): peptide at 20 μM
Outline: as §1

NR2B = biological target: T8, NR2B (Homo sapiens, UniProt Q13224); test: Ion channel panel (IonWorks Barracuda): NR2B; type: cell-based; conditions: 100% = no change, <100% = inhibition
T8 construct: host or cells: HEK293 or CHO
Outline: as §1

Kir2.1 = biological target: T9, Kir2.1 (Homo sapiens, UniProt P63252); test: Ion channel panel (IonWorks Barracuda): Kir2.1; type: cell-based; conditions: 100% = no change, <100% = inhibition
T9 construct: host or cells: HEK293 or CHO
Outline: as §1

Kv2.1 = biological target: T10, Kv2.1 (Homo sapiens, UniProt Q14721); test: cell-based; conditions: 100% = no change, <100% = inhibition
T10 construct: host or cells: HEK293 or CHO
Outline: as §1

Cav2.2 = biological target: T11, Cav2.2 (Homo sapiens, UniProt Q00975); test: cell-based; conditions: 100% = no change, <100% = inhibition
T11 construct: host or cells: HEK293 or CHO
Outline: as §1

Cav2.1 = biological target: T12, Cav2.1 (Homo sapiens, UniProt O00555); test: cell-based; conditions: 100% = no change, <100% = inhibition
T12 construct: host or cells: HEK293 or CHO
Outline: as §1

NR2A = biological target: T13, NR2A (Homo sapiens, UniProt Q12879); test: Ion channel panel (IonWorks Barracuda): NR2A; type: cell-based; conditions: 100% = no change, <100% = inhibition
T13 construct: host or cells: HEK293 or CHO
Outline: as §1

Nav1.7 = biological target: T14, Nav1.7 (Homo sapiens, UniProt Q15858); test: cell-based; type: cell-based; conditions: 100% = no change; for Activity of Nav1.7 with peptide, expressed as a percentage of the reference compound: peptide at 0.2 μM; for Activity of Nav1.7 with peptide (percentage of the reference compound): peptide at 20 μM
T14 construct: host or cells: HEK293 or CHO

TRPA1 = biological target: T15, TRPA1 (Homo sapiens, UniProt O75762); test: Ion channel panel (IonWorks Barracuda): TRPA1; type: cell-based; conditions: 100% = no change, <100% = inhibition
T15 construct: host or cells: HEK293 or CHO
Outline: as §1

[1] = first of two Nav1.5 columns (probably TP1)
[2] = second of two Nav1.5 columns (probably TP2)
[3] = first of two Nav1.7 columns (probably TP1)
[4] = second of two Nav1.7 columns (probably TP2)

T14 sequence (Q15858 whole entry): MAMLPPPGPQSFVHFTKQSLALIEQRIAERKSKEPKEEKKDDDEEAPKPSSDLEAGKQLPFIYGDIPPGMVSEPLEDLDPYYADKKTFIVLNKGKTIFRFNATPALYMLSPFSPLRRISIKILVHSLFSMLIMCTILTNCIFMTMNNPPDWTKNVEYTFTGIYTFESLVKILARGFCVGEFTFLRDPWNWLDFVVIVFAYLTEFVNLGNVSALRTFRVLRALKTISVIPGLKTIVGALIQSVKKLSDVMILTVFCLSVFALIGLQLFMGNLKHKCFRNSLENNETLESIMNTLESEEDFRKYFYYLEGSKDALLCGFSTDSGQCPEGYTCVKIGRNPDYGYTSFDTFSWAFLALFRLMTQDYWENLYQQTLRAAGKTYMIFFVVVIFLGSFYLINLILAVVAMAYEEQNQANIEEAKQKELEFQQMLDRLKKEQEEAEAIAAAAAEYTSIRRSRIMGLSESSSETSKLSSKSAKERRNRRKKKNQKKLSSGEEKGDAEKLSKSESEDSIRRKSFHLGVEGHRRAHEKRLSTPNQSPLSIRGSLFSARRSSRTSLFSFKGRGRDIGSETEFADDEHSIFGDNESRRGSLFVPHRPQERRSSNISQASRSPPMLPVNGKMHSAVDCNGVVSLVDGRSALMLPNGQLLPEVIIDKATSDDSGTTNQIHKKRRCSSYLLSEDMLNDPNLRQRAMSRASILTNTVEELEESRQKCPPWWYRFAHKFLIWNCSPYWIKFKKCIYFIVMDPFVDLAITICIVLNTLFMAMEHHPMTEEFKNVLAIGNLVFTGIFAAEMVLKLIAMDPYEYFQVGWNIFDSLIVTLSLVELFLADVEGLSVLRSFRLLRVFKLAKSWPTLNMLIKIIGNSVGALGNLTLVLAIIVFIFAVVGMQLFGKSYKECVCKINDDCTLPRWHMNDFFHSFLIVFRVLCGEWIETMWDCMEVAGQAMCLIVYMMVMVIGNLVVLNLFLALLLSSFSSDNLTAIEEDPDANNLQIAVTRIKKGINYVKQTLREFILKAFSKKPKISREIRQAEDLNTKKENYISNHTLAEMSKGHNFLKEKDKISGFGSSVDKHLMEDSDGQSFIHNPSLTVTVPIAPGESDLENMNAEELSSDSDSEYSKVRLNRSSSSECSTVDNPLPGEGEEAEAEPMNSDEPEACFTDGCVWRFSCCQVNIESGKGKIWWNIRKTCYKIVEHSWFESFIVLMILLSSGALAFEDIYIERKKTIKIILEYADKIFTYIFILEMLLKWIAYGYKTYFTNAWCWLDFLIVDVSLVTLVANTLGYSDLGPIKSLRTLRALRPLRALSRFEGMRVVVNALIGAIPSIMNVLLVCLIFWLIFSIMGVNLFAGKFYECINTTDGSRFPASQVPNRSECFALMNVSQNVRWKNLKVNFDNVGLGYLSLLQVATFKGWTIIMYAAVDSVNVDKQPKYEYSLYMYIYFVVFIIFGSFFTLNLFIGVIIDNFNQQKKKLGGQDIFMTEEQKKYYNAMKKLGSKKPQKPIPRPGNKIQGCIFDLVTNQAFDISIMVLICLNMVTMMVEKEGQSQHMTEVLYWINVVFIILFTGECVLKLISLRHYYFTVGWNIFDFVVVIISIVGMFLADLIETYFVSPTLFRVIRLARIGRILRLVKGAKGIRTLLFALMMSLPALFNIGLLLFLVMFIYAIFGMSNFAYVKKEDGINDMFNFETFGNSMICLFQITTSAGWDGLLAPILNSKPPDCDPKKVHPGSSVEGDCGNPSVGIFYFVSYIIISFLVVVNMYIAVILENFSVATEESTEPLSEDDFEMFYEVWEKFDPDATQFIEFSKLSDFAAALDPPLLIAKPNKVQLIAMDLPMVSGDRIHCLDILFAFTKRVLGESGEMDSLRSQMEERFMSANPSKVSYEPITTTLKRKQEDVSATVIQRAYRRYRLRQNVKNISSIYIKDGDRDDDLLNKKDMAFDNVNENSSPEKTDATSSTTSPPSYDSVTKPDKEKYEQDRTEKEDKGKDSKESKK
Chain of Nav1.5 (Q14524 whole entry): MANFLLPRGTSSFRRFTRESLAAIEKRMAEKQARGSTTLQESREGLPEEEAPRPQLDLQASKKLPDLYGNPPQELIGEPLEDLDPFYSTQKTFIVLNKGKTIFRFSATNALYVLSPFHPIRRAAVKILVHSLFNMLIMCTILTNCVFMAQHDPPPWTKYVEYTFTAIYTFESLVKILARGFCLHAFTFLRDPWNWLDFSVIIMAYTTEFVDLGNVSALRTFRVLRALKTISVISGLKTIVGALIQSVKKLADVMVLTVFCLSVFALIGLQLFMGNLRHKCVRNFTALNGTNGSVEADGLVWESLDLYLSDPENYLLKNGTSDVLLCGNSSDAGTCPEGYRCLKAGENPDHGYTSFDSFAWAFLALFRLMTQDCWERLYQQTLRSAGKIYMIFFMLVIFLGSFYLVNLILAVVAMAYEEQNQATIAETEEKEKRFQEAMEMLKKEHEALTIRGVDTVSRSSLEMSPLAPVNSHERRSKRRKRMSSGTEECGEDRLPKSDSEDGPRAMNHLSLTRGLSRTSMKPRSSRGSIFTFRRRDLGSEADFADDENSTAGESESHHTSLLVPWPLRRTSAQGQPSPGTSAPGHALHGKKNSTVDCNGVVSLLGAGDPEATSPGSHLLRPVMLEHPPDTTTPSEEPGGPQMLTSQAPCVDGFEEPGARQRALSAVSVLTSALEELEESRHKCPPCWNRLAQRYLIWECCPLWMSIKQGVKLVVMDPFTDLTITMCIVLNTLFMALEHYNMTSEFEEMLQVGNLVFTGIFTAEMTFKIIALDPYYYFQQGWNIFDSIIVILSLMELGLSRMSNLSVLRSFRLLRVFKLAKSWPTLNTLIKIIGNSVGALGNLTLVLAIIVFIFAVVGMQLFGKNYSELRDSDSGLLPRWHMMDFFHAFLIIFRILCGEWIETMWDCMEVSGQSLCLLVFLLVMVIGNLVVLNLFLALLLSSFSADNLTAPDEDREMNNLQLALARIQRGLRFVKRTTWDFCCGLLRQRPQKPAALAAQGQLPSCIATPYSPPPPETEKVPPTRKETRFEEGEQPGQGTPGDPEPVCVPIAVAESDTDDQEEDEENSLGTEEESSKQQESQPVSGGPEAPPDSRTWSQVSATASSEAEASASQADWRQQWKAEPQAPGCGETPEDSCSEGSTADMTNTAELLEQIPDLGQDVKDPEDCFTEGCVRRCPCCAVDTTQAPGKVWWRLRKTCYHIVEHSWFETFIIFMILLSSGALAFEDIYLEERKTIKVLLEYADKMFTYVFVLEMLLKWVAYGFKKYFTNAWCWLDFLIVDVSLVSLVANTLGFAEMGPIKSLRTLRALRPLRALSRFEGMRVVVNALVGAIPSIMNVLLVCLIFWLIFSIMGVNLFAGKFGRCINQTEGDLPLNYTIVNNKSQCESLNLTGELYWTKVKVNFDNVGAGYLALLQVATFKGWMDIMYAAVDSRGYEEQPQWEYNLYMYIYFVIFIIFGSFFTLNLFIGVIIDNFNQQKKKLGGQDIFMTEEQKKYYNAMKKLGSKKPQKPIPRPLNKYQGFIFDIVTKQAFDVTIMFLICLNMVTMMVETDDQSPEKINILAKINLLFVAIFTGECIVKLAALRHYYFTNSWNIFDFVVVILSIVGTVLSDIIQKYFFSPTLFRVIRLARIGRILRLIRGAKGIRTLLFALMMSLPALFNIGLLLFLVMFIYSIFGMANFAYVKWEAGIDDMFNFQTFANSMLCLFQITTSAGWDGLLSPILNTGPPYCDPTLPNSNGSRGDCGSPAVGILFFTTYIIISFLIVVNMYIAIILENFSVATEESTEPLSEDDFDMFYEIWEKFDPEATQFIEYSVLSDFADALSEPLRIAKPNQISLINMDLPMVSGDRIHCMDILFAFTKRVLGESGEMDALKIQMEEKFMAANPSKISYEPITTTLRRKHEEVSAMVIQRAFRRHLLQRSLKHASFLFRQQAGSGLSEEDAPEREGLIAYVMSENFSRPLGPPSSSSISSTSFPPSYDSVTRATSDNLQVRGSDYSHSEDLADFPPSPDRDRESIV
T3 sequence (Q09470 whole entry): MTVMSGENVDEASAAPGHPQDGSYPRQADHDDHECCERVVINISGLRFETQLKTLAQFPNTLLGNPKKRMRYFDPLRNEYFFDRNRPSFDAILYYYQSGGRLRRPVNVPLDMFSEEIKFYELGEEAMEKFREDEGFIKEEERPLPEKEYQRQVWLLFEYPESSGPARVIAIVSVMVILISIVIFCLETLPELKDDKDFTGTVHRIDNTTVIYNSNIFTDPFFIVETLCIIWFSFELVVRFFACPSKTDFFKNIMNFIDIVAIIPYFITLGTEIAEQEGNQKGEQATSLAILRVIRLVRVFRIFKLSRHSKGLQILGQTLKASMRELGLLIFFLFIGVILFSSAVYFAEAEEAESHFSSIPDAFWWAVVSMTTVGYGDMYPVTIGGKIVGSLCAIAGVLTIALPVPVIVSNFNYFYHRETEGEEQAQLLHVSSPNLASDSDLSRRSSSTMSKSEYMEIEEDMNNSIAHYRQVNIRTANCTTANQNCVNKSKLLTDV
T9 sequence (P63252 whole entry): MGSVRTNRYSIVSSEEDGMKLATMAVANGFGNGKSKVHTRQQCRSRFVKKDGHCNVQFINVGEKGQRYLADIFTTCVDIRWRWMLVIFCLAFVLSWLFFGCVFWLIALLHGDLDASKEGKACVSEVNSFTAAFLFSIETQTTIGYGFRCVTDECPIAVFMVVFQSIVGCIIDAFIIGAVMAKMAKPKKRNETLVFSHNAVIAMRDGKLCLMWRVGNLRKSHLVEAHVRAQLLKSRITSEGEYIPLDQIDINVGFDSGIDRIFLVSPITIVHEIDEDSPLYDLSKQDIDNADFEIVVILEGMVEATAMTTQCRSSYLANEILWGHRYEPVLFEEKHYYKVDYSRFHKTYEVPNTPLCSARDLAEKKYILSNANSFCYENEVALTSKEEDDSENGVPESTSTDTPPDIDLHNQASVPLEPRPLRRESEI

“12 (GSNFKVEGACSKPCRKYCIDKGARNGKCINGRCHCYY) [compound 12]” was tested, and the “Activity of 5HT3a with peptide (percentage of the reference compound)” value (5HT3a) was 97%, the “Activity of 5HT3a with peptide, expressed as a percentage of the reference compound” value (5HT3a) was 96% and the “Activity of Kv1.3 with peptide, expressed as a percentage of the reference compound” value (Kv1.3; peptide at 0.2 μM) was 68%. For the same substance, the “Activity of Kv1.3 with peptide (percentage of the reference compound)” value (Kv1.3; peptide at 20 μM) was 23%, the “Activity of Kv1.1 with peptide, expressed as a percentage of the reference compound” value (Kv1.1; peptide at 0.2 μM) was 107% and the “Activity of Kv1.1 with peptide (percentage of the reference compound)” value (Kv1.1; peptide at 20 μM) was 84%. For the same substance, the “Activity of Kv1.2 with peptide, expressed as a percentage of the reference compound” value (Kv1.2; peptide at 0.2 μM) was 88%, the “Activity of Kv1.2 with peptide (percentage of the reference compound)” value (Kv1.2; peptide at 20 μM) was 41% and the “Activity of a4b2 with peptide, expressed as a percentage of the reference compound” value (α4β2; peptide at 0.2 μM) was 97%. The “Activity of a4b2 with peptide (percentage of the reference compound)” value (α4β2; peptide at 20 μM) was 84%, the “Activity of a3b4 with peptide, expressed as a percentage of the reference compound” value (α3β4; peptide at 0.2 μM) was 103% and the “Activity of a3b4 with peptide (percentage of the reference compound)” value (α3β4; peptide at 20 μM) was 94%. For the same substance, the “Activity of GABA with peptide, expressed as a percentage of the reference compound” value (GABA; peptide at 0.2 μM) was 102%, the “Activity of GABA with peptide (percentage of the reference compound)” value (GABA; peptide at 20 μM) was 93% and the “Activity of TRPV1 with peptide, expressed as a percentage of the reference compound” value (TRPV1; peptide at 0.2 μM) was 97%. The “Activity of TRPV1 with peptide (percentage of the reference compound)” value (TRPV1; peptide at 20 μM) was 78%, the “Activity of hERG with peptide, expressed as a percentage of the reference compound” value (hERG; peptide at 0.2 μM) was 89% and the “Activity of hERG with peptide (percentage of the reference compound)” value (hERG; peptide at 20 μM) was 81%. For the same substance, the “Activity of Nav1.5 with peptide, expressed as a percentage of the reference compound” value (Nav1.5; [1]) was 98%, the “Activity of Nav1.5 with peptide, expressed as a percentage of the reference compound” value (Nav1.5; [2]) was 95% and the “Activity of Nav1.5 with peptide (percentage of the reference compound)” value (Nav1.5; [1]) was 131%. The “Activity of Nav1.5 with peptide (percentage of the reference compound)” value (Nav1.5; [2]) was 136%, the “Activity of NR2B with peptide, expressed as a percentage of the reference compound” value (NR2B; peptide at 0.2 μM) was 122% and the “Activity of NR2B with peptide (percentage of the reference compound)” value (NR2B; peptide at 20 μM) was 83%. For the same substance, the “Activity of Kir2.1 with peptide, expressed as a percentage of the reference compound” value (Kir2.1; peptide at 0.2 μM) was 97%, the “Activity of Kir2.1 with peptide (percentage of the reference compound)” value (Kir2.1; peptide at 20 μM) was 102% and the “Activity of Kv2.1 with peptide, expressed as a percentage of the reference compound” value (Kv2.1; peptide at 0.2 μM) was 104%. For the same substance, the “Activity of Kv2.1 with peptide (percentage of the reference compound)” value (Kv2.1; peptide at 20 μM) was 113%, the “Activity of Cav2.2 with peptide, expressed as a percentage of the reference compound” value (Cav2.2; peptide at 0.2 μM) was 115% and the “Activity of Cav2.2 with peptide (percentage of the reference compound)” value (Cav2.2; peptide at 20 μM) was 115%. The “Activity of Cav2.1 with peptide, expressed as a percentage of the reference compound” value (Cav2.1; peptide at 0.2 μM) was 109%, the “Activity of Cav2.1 with peptide (percentage of the reference compound)” value (Cav2.1; peptide at 20 μM) was 104% and the “Activity of NR2A with peptide, expressed as a percentage of the reference compound” value (NR2A; peptide at 0.2 μM) was 94%. The “Activity of NR2A with peptide (percentage of the reference compound)” value (NR2A; peptide at 20 μM) was 91%, the “Activity of Nav1.7 with peptide, expressed as a percentage of the reference compound” value (Nav1.7; [3]) was 61% and the “Activity of Nav1.7 with peptide, expressed as a percentage of the reference compound” value (Nav1.7; [4]) was 66%. For the same substance, the “Activity of Nav1.7 with peptide (percentage of the reference compound)” value (Nav1.7; [3]) was 74%, the “Activity of Nav1.7 with peptide (percentage of the reference compound)” value (Nav1.7; [4]) was 63% and the “Activity of TRPA1 with peptide, expressed as a percentage of the reference compound” value (TRPA1; peptide at 0.2 μM) was 129%. For the same substance, the “Activity of TRPA1 with peptide (percentage of the reference compound)” value (TRPA1; peptide at 20 μM) was 80%.

— patent publication US20200262877A1, “ION CHANNEL-BINDING PEPTIDES AND METHODS OF USE THEREOF” (priority 2017, published 2020)
